Measurements as given in PMC3071548 (Molecular microbiology, 2010).

Biological target: the molecule itself
Experiment: SEC

B1: YgbT, purified full-length protein (natural protein, E. coli, UniProt Q46896 1-305, looked up)
chain: MTWLPLNPIPLKDRVSMIFLQYGQIDVIDGAFVLIDKTGIRTHIPVGSVACIMLEPGTRVSHAAVRLAAQVGTLLVWVGEAGVRVYASGQPGGARSDKLLYQAKLALDEDLRLKVVRKMFELRFGEPAPARRSVEQLRGIEGSRVRATYALLAKQYGVTWNGRRYDPKDWEKGDTINQCISAATSCLYGVTEAAILAAGYAPAIGFVHTGKPLSFVYDIADIIKFDTVVPKAFEIARRNPGEPDREVRLACRDIFRSSKTLAKLIPLIEDVLAAGEIQPPAPPEDAQPVAIPLPVSLGDAGHRSS
stoichiometry N: 2
